The target of experiment [1] is SARS-CoV-2 Omicron BA.1 RBD, yeast-displayed (SARS-CoV-2, UniProt P0DTC2). The experiment can be described thus: flow cytometry on cells. The conditions noted are these: one partner purified. (In general: In flow cytometry, cells or beads pass a laser one at a time.)
Experiment [2] has as its target SARS-CoV-2 Omicron BA.2 RBD, yeast-displayed (SARS-CoV-2, UniProt P0DTC2). The experiment can be described thus: flow cytometry on cells. The conditions noted are these: one partner purified.

Data on one molecule can be found in publication PMC9409550 (PLoS ONE, 2022).

B1: CDY14HL-Fc1 (Fc fusion)
chain: QSTIEEQAKTFLDMFNHKAEDLFYQSSLAAWNYNTNITEENVQNMNNAGDKWSAFLKEQSTFAQMYPLQEIQNPTVKLQLQALQQNGSSVLSEDKSKRLNTILNTMSTIYSTGKVCNPDNPQECLLLEPGLNEIMANSLDYNERLWAWESWRSEVGKQLRPLYEEYVVLKNEMARANHYEDYGDYWRGDYEVNGVDGYDYSRGQLIEDVEHTFEEIKPLYEHLHAYVRAKLMNAYPSYISPIGCLPAHLLGDMWGRFWTNLYSLTVPFGQKPNIDVTDAMVDQAWDAQRIFKEAEKFFVSVGLPNMTQGFWEYSMLTDPGNVQKAVCLPTAWDLGKGDFRILMCTKVTMDDFLTAHHEMGHIQYDMAYAAQPFLLRNGANEGFHEAVGEIMSLSAATPKHLKSIGLLSPDFQEDNETEINFLLKQALTIVGTLPFTYMLEKWRWMVFKGEIPKDQWMKKWWEMKREIVGVVEPVPHDETYCDPASLFHVSNDYSFIRYYTRTLYQFQFQEALCQAAKHEGPLHKCDISNSTEAGQKLFNMLRLGKSEPWTLALENVVGAKNMNVRPLLNYFEPLFTWLKDQNKNSFVGWSTDWSPYAD
With B1, the values for the Kd in experiment [1] and in experiment [2] were 0.031 nM and 0.024 nM, respectively.
